According to patent US20200024330A1:

Tests used:
Assay in all cases: cell-based or functional assay
[1] = molecular target: HIV-1 92TH021 envelope glycoprotein (Env) on pseudovirus (HIV-1)
[2] = molecular target: HIV-1 92UG024 envelope glycoprotein (Env) on pseudovirus (HIV-1)
[3] = molecular target: HIV-1 CMU02 envelope glycoprotein (Env) on pseudovirus (HIV-1)
[4] = molecular target: HIV-1 92UG005 envelope glycoprotein (Env) on pseudovirus (HIV-1)
[5] = molecular target: aMLV envelope protein on pseudovirus (negative control virus)
[6] = molecular target: HIV-1 MGRM-D-001 envelope glycoprotein (Env) on pseudovirus (HIV-1)
[7] = molecular target: HIV-1 MGRM-AG-005 envelope glycoprotein (Env) on pseudovirus (HIV-1)
[8] = molecular target: HIV-1 MGRM-D-018 envelope glycoprotein (Env) on pseudovirus (HIV-1)
[9] = molecular target: HIV-1 JR-CSF Env, wild type (pseudovirus) (HIV-1 JR-CSF) (UniProt P20871)
[10] = molecular target: HIV-1 Env of isolate DU422 (HIV-1)
[11] = molecular target: HIV-1 ADA Env (pseudovirus) (HIV-1 ADA)
[12] = molecular target: HIV-1 Env of isolate ZM233 (HIV-1)
[13] = molecular target: HIV-1 92RW020 Env (pseudovirus) (HIV-1 92RW020)
[14] = molecular target: HIV-1 Env of isolate ZM214 (HIV-1)
[15] = molecular target: HIV-1 Env of isolate THRO.18 (HIV-1)
[16] = molecular target: HIV-1 Env of isolate Du172 (HIV-1)
[17] = molecular target: HIV-1 JR-CSF Env I309A (pseudovirus) (HIV-1 JR-CSF) (UniProt P20871)
[18] = molecular target: HIV-1 Env of isolate AC10 (HIV-1)
[19] = molecular target: HIV-1 JR-CSF Env Y318A (pseudovirus) (HIV-1 JR-CSF) (UniProt P20871)
[20] = molecular target: HIV-1 JR-FL Env E168K (pseudovirus) (HIV-1 JR-FL)
[21] = molecular target: HIV-1 Env of isolate PVO.4 (HIV-1)
[22] = molecular target: HIV-1 Env of isolate ZM249 (HIV-1)
[23] = molecular target: HIV-1 Env of isolate CAAN (HIV-1)
[24] = molecular target: HIV-1 Env of isolate TR0.11 (HIV-1)
[25] = molecular target: HIV-1 Env of isolate DU156 (HIV-1)
[26] = molecular target: HIV-1 Env of isolate REJ04541 (HIV-1)
[27] = molecular target: MuLV envelope protein (control pseudovirus) (MuLV)
[28] = molecular target: HIV-1 Env of isolate CAP45 (HIV-1)

Binder | IC50, pseudovirus neutralization [1] | IC50, pseudovirus neutralization [2] | IC50, pseudovirus neutralization [3] | IC50, pseudovirus neutralization [4] | IC50, pseudovirus neutralization [5] | IC50, pseudovirus neutralization [6] | IC50, pseudovirus neutralization [7] | IC50, pseudovirus neutralization [8] | IC50 (ug/ml), neutralization [9] | IC50, pseudovirus neutralization (TZM-bl) [10] | IC50 (ug/ml), neutralization [11] | IC50, pseudovirus neutralization (TZM-bl) [12] | IC50 (ug/ml), neutralization [13] | IC50, pseudovirus neutralization (TZM-bl) [14] | IC50, pseudovirus neutralization (TZM-bl) [15] | IC50, pseudovirus neutralization (TZM-bl) [16] | IC50 (ug/ml), neutralization [17] | IC50, pseudovirus neutralization (TZM-bl) [18] | IC50 (ug/ml), neutralization [19] | IC50 (ug/ml), neutralization [20] | further results
PGT-123 monoclonal antibody (antibody, V domains shown) VH: QLHLQESGPGLVKPPETLSLTCSVSGASINDAYWSWIRQSPGKRPEWVGYVHHSGDTNYNPSLKRRVTFSLDTAKNEVSLKLVDLTAADSATYFCARALHGKRIYGIVALGELFTYFYMDVWGKGTAVTVSS VL: SSMSVSPGETAKISCGKESIGSRAVQWYQQKPGQPPSLIIYNNQDRPAGVPERFSASPDFRPGTTATLTITNVDAEDEADYYCHIYDARGGTNWVFDRGTTLTVL | > 10 µg/mL | > 10 µg/mL | > 10 µg/mL | 2.49 µg/mL | > 10 µg/mL | 0.215 µg/mL | 0.104 µg/mL | 0.0047 µg/mL | – | – | – | – | – | – | – | – | – | – | – | – | –
PGT-135 monoclonal antibody (antibody, V domains shown) VH: QLQMQESGPGLVKPSETLSLSCTVSGDSIRGGEWGDKDYHWGWVRHSAGKGLEWIGSIHWRGTTHYKESLRRRVSMSIDTSRNWFSLRLASVTAADTAVYFCARHRHHDVFMLVPIAGWFDVWGPGVQVTVSS VL: EIVMTQSPDTLSVSPGETVTLSCRASQNINKNLAWYQYKPGQSPRLVIFETYSKIAAFPARFVASGSGTEFTLTINNMQSEDVAVYYCQQYEEWPRTFGQGTKVDIK | > 10 µg/mL | 0.0139 µg/mL | > 10 µg/mL | > 10 µg/mL | > 10 µg/mL | > 10 µg/mL | > 10 µg/mL | 0.0433 µg/mL | – | – | – | – | – | – | – | – | – | – | – | – | –
PGT-130 monoclonal antibody (antibody, V domains shown) VH: QVQLQESGPGLVKPAETLSLTCSVSGESINTGHYYWGWVRQVPGKGLEWIGHIHYTTAVLHNPSLKSRLTIKIYTLRNQITLRLSNVTAADTAVYHCVRSGGDILYYYEWQKPHWFSPWGPGIHVTVSS VL: QSALTQPPSASGSLGQSVTISCNGTSSDIGGWNFVSWYQQFPGRAPRLIIFEVNKRPSGVPGRFSGSKSGNSASLTVSGLQSDDEGQYFCSSLFGRWDVVFGGGTKLTVL | 0.0082 µg/mL | > 10 µg/mL | > 10 µg/mL | 0.474 µg/mL | > 10 µg/mL | > 10 µg/mL | 0.947 µg/mL | 0.0378 µg/mL | – | – | – | – | – | – | – | – | – | – | – | – | –
PGT-126 monoclonal antibody (antibody, V domains shown) VH: QPQLQESGPGLVEASETLSLTCTVSGDSTAACDYFWGWVRQPPGKGLEWIGGLSHCAGYYNTGWTYHNPSLKSRLTISLDTPKNQVFLKLNSVTAADTAIYYCARFDGEVLVYHDWPKPAWVDLWGRGTLVTVSS VL: QSALTQPPSASGSPGQSISISCTGTSNRFVSWYQQHPGKAPKLVIYGVNKRPSGVPDRFSGSKSGNTASLTVSGLQTDDEAVYYCSSLVGNWDVIFGGGTKLTVL | 0.115 µg/mL | > 10 µg/mL | > 10 µg/mL | 0.0181 µg/mL | > 10 µg/mL | 0.0639 µg/mL | 1.35 µg/mL | 0.0093 µg/mL | – | – | – | – | – | – | – | – | – | – | – | – | –
PGT-136 monoclonal antibody (antibody, V domains shown) VH: QLQLQESGPGLVKPSETLSLTCTVSGGSMRGTDWGENDFHYGWIRQSSAKGLEWIGSIHWRGRTTHYKTSFRSRATLSIDTSNNRFSLTFSFVTAADTAVYYCARHKYHDIFRVVPVAGWFDPWGQGLLVTVSS VL: EIVMTQSPPTLSVSPGETATLSCRASQNVKNNLAWYQLKPGQAPRLLIFDASSRAGGIPDRFSGSGYGTDFTLTVNSVQSEDFGDYFCQQYEEWPRTFGQGTKVDIK | > 10 µg/mL | 0.0915 µg/mL | > 10 µg/mL | > 10 µg/mL | > 10 µg/mL | > 10 µg/mL | > 10 µg/mL | > 10 µg/mL | – | – | – | – | – | – | – | – | – | – | – | – | –
PGT-125 monoclonal antibody (antibody, V domains shown) VH: QSQLQESGPRLVEASETLSLTCNVSGESTGACTYFWGWVRQAPGKGLEWIGSLSHCQSFWGSGWTFHNPSLKSRLTISLDTPKNQVFLKLTSLTAADTATYYCARFDGEVLVYNHWPKPAWVDLWGRGIPVTVSS VL: QSALTQPPSASGSPGQSITISCNGTATNFVSWYQQFPDKAPKLIIFGVDKRPPGVPDRFSGSRSGTTASLTVSRLQTDDEAVYYCGSLVGNWDVIFGGGTTLTVL | 0.0066 µg/mL | > 10 µg/mL | > 10 µg/mL | > 10 µg/mL | > 10 µg/mL | 2.31 µg/mL | > 10 µg/mL | 0.0382 µg/mL | – | – | – | – | – | – | – | – | – | – | – | – | –
1503_H05 (PG16) (TCN-119) (antibody, V domains shown) VH: QEKLVESGGGVVQPGGSLRLSCLASGFTFHKYGMHWVRQAPGKGLEWVALISDDGMRKYHSDSMWGRVTISRDNSKNTLYLQFSSLKVEDTAMFFCAREAGGPIWHDDVKYYDFNDGYYNYHYMDVWGKGTIVTVSS VL: QSALTQPASVSGSPGQTITISCNGTRSDVGGFDSVSWYQQSPGKAPKVMVFDVSHRPSGISNRFSGSKSGNTASLTISGLHIEDEGDYFCSSLTDRSHRIFGGGTKVTVLG | – | – | – | – | – | – | – | – | 0.001 µg/mL | 0.71 µg/mL | 0.003 µg/mL | < 0.01 µg/mL | 0.02 µg/mL | > 25 µg/mL | 4.12 µg/mL | < 0.01 µg/mL | > 1 µg/mL | < 0.01 µg/mL | > 1 µg/mL | 0.002 µg/mL | IC50, pseudovirus neutralization (TZM-bl) [21]: 11 µg/mL; IC50, pseudovirus neutralization (TZM-bl) [22]: < 0.01 µg/mL; IC50, pseudovirus neutralization (TZM-bl) [23]: 13.5 µg/mL; IC50, pseudovirus neutralization (TZM-bl) [24]: 4.3 µg/mL; IC50, pseudovirus neutralization (TZM-bl) [25]: < 0.01 µg/mL; IC50, pseudovirus neutralization (TZM-bl) [26]: 0.22 µg/mL; IC50, pseudovirus neutralization (TZM-bl), control virus [27]: > 25 µg/mL; IC50, pseudovirus neutralization (TZM-bl) [28]: < 0.01 µg/mL
1469_M23 (PG16) (TCN-118) (antibody, V domains shown) VH: QEKLVESGGGVVQPGGSLRLSCLASGFTFHKYGMHWVRQAPGKGLEWVALISDDGMRKYHSDSMWGRVTISRDNSKNTLYLQFSSLKVEDTAMFFCAREAGGPIWHDDVKYYDFNDGYYNYHYMDVWGKGTTVTVSS VL: QSALTQPASVSGSPGQTITISCNGTRSDVGGFDSVSWYQQSPGRAPKVMVFDVSHRPSGISNRFSGSKSGNTASLTISGLHIEDEGDYFCSSLTDRSHRIFGGGTKLTVLG | – | – | – | – | – | – | – | – | 0.002 µg/mL | 0.97 µg/mL | 0.005 µg/mL | < 0.01 µg/mL | 0.05 µg/mL | > 25 µg/mL | 7.01 µg/mL | < 0.01 µg/mL | > 1 µg/mL | < 0.01 µg/mL | > 1 µg/mL | 0.005 µg/mL | IC50, pseudovirus neutralization (TZM-bl) [21]: 21.2 µg/mL; IC50, pseudovirus neutralization (TZM-bl) [22]: < 0.01 µg/mL; IC50, pseudovirus neutralization (TZM-bl) [23]: 17.7 µg/mL; IC50, pseudovirus neutralization (TZM-bl) [24]: 7.52 µg/mL; IC50, pseudovirus neutralization (TZM-bl) [25]: < 0.01 µg/mL; IC50, pseudovirus neutralization (TZM-bl) [26]: 0.39 µg/mL; IC50, pseudovirus neutralization (TZM-bl), control virus [27]: > 25 µg/mL; IC50, pseudovirus neutralization (TZM-bl) [28]: < 0.01 µg/mL
1456_A12 (PG16) (TCN-117) (antibody, V domains shown) VH: HEQLVEAGGGVVQPGGSLRLSCLASGFTFHKYGMHWVRQAPGKGLEWVALISDDGMRKYHSDSMWGRVTISRDNSKNTLYLQFSSLRVEDTAMFFCAREAGGPIWHDDVKYYDFNDGYYNYHYMDVWGKGTKVTVSS VL: QSALTQPASVSGSPGQTITISCNGTSRDVGGFDSVSWYQQSPGKAPKVMVFDVSHRPSGMSNRFSGSKSGNTASLTISGLHIEDEGDYFCSSLTDRSHRIFGGGTKLTVLG | – | – | – | – | – | – | – | – | 0.001 µg/mL | 0.36 µg/mL | 0.005 µg/mL | < 0.01 µg/mL | 0.05 µg/mL | > 25 µg/mL | 2.08 µg/mL | < 0.01 µg/mL | > 1 µg/mL | < 0.01 µg/mL | > 1 µg/mL | 0.003 µg/mL | IC50, pseudovirus neutralization (TZM-bl) [21]: 10.4 µg/mL; IC50, pseudovirus neutralization (TZM-bl) [22]: < 0.01 µg/mL; IC50, pseudovirus neutralization (TZM-bl) [23]: 10.6 µg/mL; IC50, pseudovirus neutralization (TZM-bl) [24]: 3.05 µg/mL; IC50, pseudovirus neutralization (TZM-bl) [25]: < 0.01 µg/mL; IC50, pseudovirus neutralization (TZM-bl) [26]: < 0.01 µg/mL; IC50, pseudovirus neutralization (TZM-bl), control virus [27]: > 25 µg/mL; IC50, pseudovirus neutralization (TZM-bl) [28]: < 0.01 µg/mL
